Measured values reported in patent US20170159025A1.

Key:
[1] = molecular target: EGFRvIII (UniProt P00533); assay: cell-based or functional assay
[2] = molecular target: human epidermal growth factor receptor (EGFR) (human) (UniProt P00533); assay: cell-based or functional assay

chimeric antigen receptor 806-28BBZ, scFv(EGFR)-CD28-CD28-CD137-CD3 zeta (from UniProt P01732 138-182; P10747 153-220; Q07011 214-255; P20963 52-164)
Cytotoxicity % (LDH release), U87-EGFRvIII cells, effector to target 1:1 [1]: 41% | Cytotoxicity % (LDH release), U87-EGFRvIII cells, effector to target 3:1 [1]: 81% | Cytotoxicity against target cells % (LDH release), U87-EGFRvIII cells, effector to target 5:1, 20 h [1]: 85% | Cytotoxicity % (LDH release), BxPC-3 cells, effector to target 1:1 [2]: 49% | Cytotoxicity % (LDH release), BxPC-3 cells, effector to target 1:3 [2]: 24% | Cytotoxicity % (LDH release), BxPC-3 cells, effector to target 3:1 [2]: 70% | Cytotoxicity % (LDH release), CFPAC-1 cells, effector to target 3:1 [2]: 40% | Cytotoxicity % (LDH release), PANC-1 cells, effector to target 1:1 [2]: 28% | Cytotoxicity % (LDH release), PANC-1 cells, effector to target 3:1 [2]: 65% | Cytotoxicity % (LDH release), U87-EGFR cells, effector to target 1:1 [2]: 49% | Cytotoxicity % (LDH release), U87-EGFR cells, effector to target 1:3 [2]: 29% | Cytotoxicity % (LDH release), U87-EGFR cells, effector to target 3:1 [2]: 98% | Cytotoxicity % (LDH release), U87 cells, effector to target 1:1 [2]: -14% | Cytotoxicity % (LDH release), U87 cells, effector to target 1:3 [2]: -25% | Cytotoxicity % (LDH release), U87 cells, effector to target 3:1 [2]: -2%

chimeric antigen receptor 806-Z, scFv(EGFR)-CD8-CD3 zeta (from UniProt P01732 138-203; P20963 52-164)
Cytotoxicity against target cells % (LDH release), U87-EGFRvIII cells, effector to target 5:1, 20 h [1]: 56% | cytotoxicity against tumor cells U87-EGFRvIII (LDH release) [1]: 55.5% | Cytotoxicity % (LDH release), BxPC-3 cells, effector to target 1:1 [2]: 24% | Cytotoxicity % (LDH release), BxPC-3 cells, effector to target 1:3 [2]: 14% | Cytotoxicity % (LDH release), BxPC-3 cells, effector to target 3:1 [2]: 44% | Cytotoxicity % (LDH release), CFPAC-1 cells, effector to target 1:1 [2]: 35% | Cytotoxicity % (LDH release), CFPAC-1 cells, effector to target 1:3 [2]: 12% | Cytotoxicity % (LDH release), CFPAC-1 cells, effector to target 3:1 [2]: 43% | Cytotoxicity % (LDH release), PANC-1 cells, effector to target 1:1 [2]: 34% | Cytotoxicity % (LDH release), PANC-1 cells, effector to target 1:3 [2]: 18%
